Reference: the supplement of paper PMC9170038

System: MS2 coat protein
Assay: apparent KD of MS2 coat protein; designed switch direction (-1 OFF switch, 1 ON switch): -1; higher = weaker reporter binding
In short: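 On Illumina chips, designed RNA switches with common flanks were made by stalled E. coli RNA polymerase. Titrations with SNAP-549-labelled MS2 coat protein, doubling from 0.7 or 1.5 nM to 3 µM, were done with no input, with 200 uM small-molecule ligand, or with an oligonucleotide input. Apparent KD is the median per design over clusters, from curve fits of normalised cluster fluorescence.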

[1] = input ligand: microRNA oligo, concentration not stated
[2] = Eterna round: R95, input ligand: microRNA oligo, concentration not stated
[3] = Eterna round: R95, input ligand: FMN 200 uM
[4] = Eterna round: R95, input ligand: none

UUUAGUUUAGGAUAUGUAGAUUUUAACAUGAGGAUCACCCAUGUAGAUCCUGAAUUAACUACAGAAGGGAACAUUU [Mod of Brourd 14 - Jieux - Exclusion 5] (Eterna round: R97, puzzle: Exclusion 5)
apparent KD of MS2 coat protein (input ligand: FMN 200 uM): 124 nM | apparent KD of MS2 coat protein (input ligand: none): 154 nM

ACAGAGCAAGGAUAUGCCGGGCGUGACAUGAGGAUCACCCAUGUGAUGCCGGUACGUUUAGCAGAAGGUGCAGGCA [EX5 C.2] (Eterna round: R97, puzzle: Exclusion 5)
apparent KD of MS2 coat protein (input ligand: FMN 200 uM): 19 nM | apparent KD of MS2 coat protein (input ligand: none): 14.8 nM

GCACGGUUGGUAGGAUAUCAUUGCGAUUAGCUAUGAGAAGGACCACAUGAGGAUCACCCAUGUCCUCUAAUUAGCCUGCCGUGC [Eli exng1 - 014] (Eterna round: R96, puzzle: Exclusion NG 1)
apparent KD of MS2 coat protein [1]: 118 nM

CCGUGCACGCUGCGGUCCUACAUGAGGAUCACCCAUGUGGUCUGGUGGCGUGGGUCGCCGGACUUGGCUCGUCUUGU [salish99_S_TOV1_R5_020] (Eterna round: R97, puzzle: Sensor, turn-off variant 1)
apparent KD of MS2 coat protein (input ligand: FMN 200 uM): 19.7 nM | apparent KD of MS2 coat protein (input ligand: none): 20.5 nM

CGGAAGAUCGAAGGAUAUUGAGACAAACAGUGUCAAGAAGGUUGGGAGGACACAUGAGGAUCACCCAUGUCCAACUUUUGACGG [Eternabot solution 26] (Eterna round: R96, puzzle: Exclusion NG 1)
apparent KD of MS2 coat protein (input ligand: FMN 200 uM): 12.7 nM | apparent KD of MS2 coat protein [1]: 9.76 nM | apparent KD of MS2 coat protein (input ligand: none): 12.4 nM

ACAUGCUAGUAGGAUAUCGUACGCCGAAUAGUAUGAGAAGGAUUGACAUGAGGAUCACCCAUGUGAUGCCUGAA [Quveedes] (Eterna round: R97, puzzle: Exclusion 6)
apparent KD of MS2 coat protein (input ligand: FMN 200 uM): 22 nM | apparent KD of MS2 coat protein (input ligand: none): 18.7 nM

AUUAUAAAGGCAGGAUAUACAUGAGGAUCACCCAUGUAUAUCCGAUAAUAAUAUAAGUGCCUCAUGUAGAAGGGCCAUUAUAUA [Same State Mistake] (Eterna round: R96, puzzle: Exclusion NG 2)
apparent KD of MS2 coat protein (input ligand: FMN 200 uM): 11.1 nM | apparent KD of MS2 coat protein [1]: 8.76 nM | apparent KD of MS2 coat protein (input ligand: none): 12.4 nM

UUCCUCAUAACAUGAGGAUCACCCAUGUAUUAUUUGGUAACUGAGGAUAUACUUUUAAUGUUUAUGUAGAAGGCAGAUACAGUU [JR_ExcNG3_Sub017] (Eterna round: R96, puzzle: Exclusion NG 3)
apparent KD of MS2 coat protein (input ligand: FMN 200 uM): 165 nM | apparent KD of MS2 coat protein [1]: 80.4 nM | apparent KD of MS2 coat protein (input ligand: none): 109 nM

AAAGGGUGAGGAUAUCCAUCUGGAUCAGACUAGAUCCUGAUGGAGAAGGCACAUGAGGAUCACCCAUGUGAGUU [Eli 4x 4.33] (Eterna round: R97, puzzle: Exclusion 4)
apparent KD of MS2 coat protein (input ligand: FMN 200 uM): 112 nM | apparent KD of MS2 coat protein (input ligand: none): 99.2 nM

UUGGAACAUGAGGAUCACCCAUGUCAGGAUAUUCCAAAAUCGUCGAAAGACGAUAACAGAAGAAGGGACAUUAG [Fiskxlusion 9 - Jieux - Exclusion 1] (Eterna round: R97, puzzle: Exclusion 1)
apparent KD of MS2 coat protein (input ligand: FMN 200 uM): 124 nM | apparent KD of MS2 coat protein (input ligand: none): 80.2 nM

UAUAUGUCAGGAUAUCGAUUAGAACAGAAUUUAACAAUAGUCGAGAAGGGACAUGAGGAUCACCCAUGUUCAAC [JR_Ex4_Sub021] (Eterna round: R97, puzzle: Exclusion 4)
apparent KD of MS2 coat protein (input ligand: FMN 200 uM): 41.7 nM | apparent KD of MS2 coat protein (input ligand: none): 20.5 nM

AUCGUGCAGCUUUGCUGUACGAGUACAUGAGGAUCACCCAUGUAGGAUAUGGUACGCUUUGCGUGCUAGAAGGAUAUGAGAUGU [JL ENG3 1.49] (Eterna round: R96, puzzle: Exclusion NG 3)
apparent KD of MS2 coat protein (input ligand: FMN 200 uM): 37.6 nM | apparent KD of MS2 coat protein [1]: 32 nM | apparent KD of MS2 coat protein (input ligand: none): 33 nM

CCAUCGUGUGUGAGGAUAUGCUGGACCUUGGUUCAGCAGAAGGCACAUGAGGAUCACCCAUGUGAAUACGGUGG [Mat - Exclusion 4 - JL Mod - D90] (puzzle: Brourd's mod of Exclusion 4)
apparent KD of MS2 coat protein [2]: 16.1 nM

UCUCGAAGGCAAGGAUAUCCUACAUUGUUCUGGCCCGGGCAUGCUACAUGAGGAUCACCCAUGUGGGAGAAGGUGCGCCACUGC [Design 28] (Eterna round: R96, puzzle: Exclusion NG 2)
apparent KD of MS2 coat protein (input ligand: FMN 200 uM): 69.6 nM | apparent KD of MS2 coat protein [1]: 47.1 nM | apparent KD of MS2 coat protein (input ligand: none): 72 nM

GUGUAGGGAGGAUAUACAUGAGGAUCACCCAUGUGAAUAAGAUAGAAUAAGAUAAAGUGUAGAAGGCUUAGUGU [Excluse me!!! 24 - Jieux - Exclusion 3] (puzzle: Exclusion 3)
apparent KD of MS2 coat protein [3]: 49.6 nM | apparent KD of MS2 coat protein [2]: 53 nM | apparent KD of MS2 coat protein [4]: 67.9 nM

AGAUGUAGAUUCCGAUCCUACAUGAGGAUCACCCAUGUAGCUAGACGUGCGGGCGGCGCUCGUCGGACUACCAGUAG [salish99_TOv1_r3_096] (puzzle: Sensor v3, turn-off variant 1)
apparent KD of MS2 coat protein [3]: 53.5 nM | apparent KD of MS2 coat protein [2]: 69.8 nM | apparent KD of MS2 coat protein [4]: 84.6 nM

AUAAACCUAGGAUAUACAUGAGGAUCACCCAUGUAAGGGCAAUGCCCAUGCUCCUCAUGUAGAAGGAGGAGCAG [Xezausa] (puzzle: Exclusion 3)
apparent KD of MS2 coat protein [2]: 20.2 nM

AUCAGCUCGUCAGGAUAUACAUGCGUGCUUCGGCACGAAUUUAAGAUCACAUGAGGAUCACCCAUGUAGAAGGGACGAGCUGAU [ENG2/3-B3] (Eterna round: R96, puzzle: Exclusion NG 2)
apparent KD of MS2 coat protein (input ligand: FMN 200 uM): 1270 nM | apparent KD of MS2 coat protein [1]: 498 nM | apparent KD of MS2 coat protein (input ligand: none): 526 nM

CUGAAGAAGUUAGUGGCCUACAUGAGGAUCACCCAUGUGAGGGACAUGUCGAGGCAGAAGCUGAGUGCUCGUCUGUA [JR_SV3TOV1_Sub042] (puzzle: Sensor v3, turn-off variant 1)
apparent KD of MS2 coat protein [3]: 16 nM | apparent KD of MS2 coat protein [2]: 20 nM | apparent KD of MS2 coat protein [4]: 17 nM

CUCUUGUUAGGAUAUCAAACUGGCAGCGGAGCUGGCAGAAGUGAGAAGGGACAUGAGGAUCACCCAUGUAAGAA [Aristeza] (puzzle: Exclusion 4)
apparent KD of MS2 coat protein [2]: 70.2 nM

UGAUCACAUGAGGAUCACCCAUGUCAGGAUAUCGUCACUGGAGCUGCGGCUCCAGUGACGAGAAGGGAUAUAAU [E1/5-A3] (Eterna round: R97, puzzle: Exclusion 1)
apparent KD of MS2 coat protein (input ligand: FMN 200 uM): 293 nM | apparent KD of MS2 coat protein (input ligand: none): 104 nM

CCCGGGUCAGGAUAUGGGCCCGGGCCCGAAAGGGCCCGGGCCCAGAAGGGACAUGAGGAUCACCCAUGUCCGGG [-53.1, -50.9 kcal, 20% A] (Eterna round: R97, puzzle: Exclusion 4)
apparent KD of MS2 coat protein (input ligand: FMN 200 uM): 26.7 nM | apparent KD of MS2 coat protein (input ligand: none): 24.3 nM

UGAGCUUGAGGAUAUACAAUGAGCUUGAGAAAUCGAGUUCGACAUGAGGAUCACCCAUGUAGAAGGCGAGUUCG [-37.5, -35.6 kcal, A 28% 1 and 1] (Eterna round: R97, puzzle: Exclusion 2)
apparent KD of MS2 coat protein (input ligand: FMN 200 uM): 28.1 nM | apparent KD of MS2 coat protein (input ligand: none): 17.7 nM

AAUAGUCAAGUUAGGAUAUUGCACCAGUGAUGGACCAAGAAGGAACAUGAGGAUCACCCAUGUGAACUCACGAC [Eternabot (Original) Solution 3] (Eterna round: R97, puzzle: Brourd's mod of Exclusion 4)
apparent KD of MS2 coat protein (input ligand: FMN 200 uM): 344 nM | apparent KD of MS2 coat protein (input ligand: none): 40.8 nM

GGAUAUAAUGUGAGGAUAUCUGCGAUACCUAGUCGAGAGAAGGCACAUGAGGAUCACCCAUGUGAGGACCUCGU [Eternabot (L1) Solution 98] (Eterna round: R97, puzzle: Brourd's mod of Exclusion 4)
apparent KD of MS2 coat protein (input ligand: FMN 200 uM): 29.6 nM | apparent KD of MS2 coat protein (input ligand: none): 19.4 nM
